Reference: article doi:10.1101/2024.02.13.580058 (bioRxiv, 2024)
Changes are numbered by the printed parent chain.

B1: ElsE7 (antibody)
VH: QVQLQESGPSLVKPSQTLSLTCTTSGFSLSDNTVGWVRQAPGKALQWLGSITPSGSTNYNPGLKSRLGITKDNSNSQVSLSLTSATAADSATYYCTTVHQQTRKSCPDGWMFGFDCGFHGWGSEDCVDDCSDILSAQTLSPIYTNAYHVDAWGQGLLVTVSS
VL: QAVLTQPSSVSGSLGQTVSITCSGLSNNGENGDVSWYQLIPGSAPHTLMYGDTSRASGVPDRFSGSRSGNTASLTISSLQAEDEADYFCASTGDEMISLLFGSGTTLTVL
notes: source: Expi293 or 293F cells, transient, purified (Protein A Sepharose or Praesto AP)
B2: ElsE9 (antibody)
VH: KVQLRESGPSLVKPSQTLSLTCTTSGFSFSDKTVGWVRQAPGKALEWLGSIDTSGTTGYNPGLKSRLSITRDDSKSQVSLSLSSVTTADLATYYCTTVRQQVHKTCPQGWRFGWDCGFHGYGSDDCYEDCIDILSSQTLSAEDTYELHVDAWGQGLLVTVSS
VL: QAVLTQPQSVRGSLGQRVSITCSGSSSNVGNGYVSWYQLIPGSAPRTLMYGDTTRASGVPDRFSGSRSGNTATLTISSLQAEDEADYFCASADGSSLHVAFGSGTTLTVL
notes: as for B1
B3: Bess1 (antibody)
VH: QVQLRESGPSLVKPSQTLSLTCTVSGISLSDKAVGWVRQAPGKALEWLGSIDAGGSTGYNPGLKSRLSITTDNSKSQVSLSMSGVTTEDSATYYCTTVHQKTLKQKTCPEGYSDDDGCDDSYGCGDDCCCYGGYSDYGGYEYACCSRTYTYEFHVDAWGQGLLVTVSS
VL: QAVLNQPSSVSGSLGQRVSITCSGSSSNVGNGYVSWYQLIPGSAPRTLIYGDTSRASGVPDRFSGSRSGNTATLTISSLQAEDEADYFCASAEDSSSNAVFGSGTTLTVL
notes: also called Bess1_WT; source: Expi293 or 293F cells, transient, purified (Protein A Sepharose or Praesto AP)
B4: Bess8 (antibody)
VH: QVQLRESGPSLVKPSQTLSLTCTVSGFSLSDKAVGWVRQAPGKALEWLGSIDIGGSTGYNPGLKSRLSITKDNSKSQVSLSVTSVTTEDSATYYCTIVYQTTKTTKKCPDGYNYDDGCASDLGCGEADCCCYGGDDEYAGHLYSCCSYSHTYEWYVGAWGQGLLVTVSS
VL: B3 VL
notes: as for B1
B5: ElsE6 (antibody)
VH: KVQLQESGPSLVKPSQTLSLTCTTSGFSLSDNAVGWVRQAPGKALEWLGSIDSGGSTGYNPGLKSRLSITKDNSKSQVSLSVSSVTTADSATYYCTTVHQQTRKSCPAGYTLAKDCGFYGYGSEDCYDDCSDILSSHTLSPTTTYELHVDAWGQGLLVTVSS
VL: B3 VL with N5T, S27T, S54N, A90L, V100I, T108I
notes: as for B1
B6: Bess3 (antibody)
VH: QVQLRESGPSLVKPSQTLSLTCTVSGFSLSDKAVGWVRQAPGKALEWLGSIDNGENIGYNPGLKSRLSITKDNSKSQVSLSVSSVTTEDSATYYCATVHQTTKTTKQCPDGYNYDDGCASDLGCGEADCCCYGGYDDYGGYLYSCCSYTYTYEWYVDTWGQGLLVTVSS
VL: B3 VL
notes: as for B1
B7: ElsE3 (antibody)
VH: KVQLQESGPSLVKPSQTLSLTCATSGFSLSDKTVGWVRQAPGKALEWLGSIDTSGNTGYNPLLKFRLSITKDNSKSQVSLSLSSATTADSATYYCTTVHQQTRKSCPDGYSFGYDCGFHGYGSEDCYPDCSDILTSDVVGPIDAYELHVDAWGQGLLVTVSS
VL: B3 VL with N5T, S27N, L39V, S77T, A90S, V100I
notes: as for B1
B8: ElsE1 (antibody)
VH: KVQLRESGPSLIKPSQTLSLTCTTSIFSLIDKTVGWVRQAPGKSLEWLGSIDTSGNTGYNPGLKSRLHITKDNSRSQVSLSLSSVTTADSATYYCTTVHQQTRKGCPDGWRFGWDCGFHGYGQEDCYEDCIDILSSQTLSPTDAYEFHVDAWGQGLLVTVSS
VL: B3 VL with N5T, S27G, S77T, A85T, D94G, S97N
notes: as for B1
B9: Bess2 (antibody)
VH: B4 VH with Q1K, I53T, A91T, I97T, Y99H, D135Y, A139G, H141Y, H150Y, G157D
VL: B3 VL
notes: as for B1
B10: ElsE10 (antibody)
VH: KVQLRESGPSLVKPSQTLSLTCTTSGFSLSEKTVGWVRQAPGKPLEWLGTINTSGSGGSNPGLKSRLHITKDNSQSQVSLSLSSVTTADSATYYCTTVHQQTRKRCPDGWSFGWDCGFSGYGSEDCYDDCTDILSSNTLSPTDTYELHVDAWGQGLLVTVSS
VL: B3 VL with N5T, D94G, A99I, S103V
notes: as for B1
B11: ElsE4 (antibody)
VH: QVQLRESGPSLVKPSQTLSLTCTTSGFSLSDKTVGWVRQAPGKALEWLGSRDSSGKTAYNPGLKSRLSITNDNSKSQVSLSLSSVSTADSATYYCTTVHQQTRKSCPDGWSFGWDCGFHGYGVGDCYDDCTDILSSQTLSPTDTYELHIDAWGQGLLVTVSS
VL: B3 VL with N5T, R17T, S25T, S35T, L39V, G42R, Y50F, S95T, A99V
notes: as for B1
B12: ElsE5 (antibody)
VH: QVQLQESGPSLVKPSQTLSLTCTTSGFSLSDKTVGWVRQAPGKALEWLGSIDTSGRTGYNPGLKSRLDITKDNPKRQVSLSLSSVTTADSATYYCTTVHQQTRKGCPDGWSFGWDCGFHGYGREDCYDDCTDILSSQTLSPTDTYEFHVDAWGQGLLVTVSS
VL: B3 VL with N5T, S54T, T75S, S77T, A85T
notes: as for B1
B13: Bess6 (antibody)
VH: KVQLRESGPSLVKPSQTLSLICTVSGFSLSDKAVGWVRQAPGKALEWLGSIDTAGTTDHHPGLKSRLSITKDNSKNQVSLSLSSVTTEDSATYYCTTVHQPTSKQYSCPDGASVRTGGGWRWLCRGHDCCCVVEYIAYEQTPCTLTRTYEWHIDAWGQGLLVTVSS
VL: B3 VL
notes: as for B1
B14: Bess7 (antibody)
VH: QVQLRESGPSLVKPSQTLSLTCTVSGFSLNDKAVGWVRQAPGRALEWLGSVSTGGSTTYNPGLKPRLSITKDNSKSQISLTVTSVTTEDSATYYCTTVHQTTKTTKECPEGYNWDDGCGSELGCGGADCCCWGGVDEYAGDLYSCCSVAHTYEWYVDAWGQGLLVTVSS
VL: B3 VL
notes: as for B1
B15: ElsE11 (antibody)
VH: KVQLRESGPSLVKPSQTLSLTCTTSGFSLSDKTVGWVRQAPGKALEWLGSTDTSGNTGYNPGLKSRLSITKDNSKSQVSLSVSSVSTADSATYYCTTVRQQTRKSCPDGWTLAKDCGFYGYGSEDCYDDCTDILSSNTLSPTTTHEFNVDAWGQGLLVTVSS
VL: B3 VL with N5T, V29T, Y33A, A56T, T71I, A85G, A90G, V100I
notes: as for B1
B16: Bess5 (antibody)
VH: QVQLQESGPSLVKPSQTLSLMCAASGFSLSDKTVGWVRQAPGKALEWLGSIDSSGSTGYNPGLKSRLTITKDSSKSQVSLSVSSVTTEDSATYYCTTVHQQTRNKEKTCPGGEDCGIGCCCAGCSATDYGCWDGSSYASYSYIYTYDIHVDAWGQGLLVTVSS
VL: B3 VL
notes: as for B1
B17: ElsE8 (antibody)
VH: KVQLQESGPSLVKPSQTLSLTCTTSGFSLSDKGIAWVRQAPGKALEWLGSTDTTGSTNYNPGLKSRVIVTKDNSKSQVSLSLSSVTIADSATYYCTAVVQETRKSCPDGWRFGWDCGFHGYGTEDCYEDCVDILSSETVSSTDRYELHVDAWGQGLLVTVSS
VL: B3 VL with N5S, L39Q, I40F, S54G, A56S, T75S, D94G, S97K, N98H
notes: as for B1

Biological target: BG505 gp120 (HIV-1 isolate BG505 (clade A), UniProt Q2N0S6)
Experiment: ELISA; 250 ng BG505 gp120 coated on the plate; monoclonal antibodies from 20 µg/mL in seven 6-fold dilutions, 1 hr, room temperature; detected with alkaline phosphatase anti-human F(ab')2
Conditions: both partners purified

| Binder | binding result |
| --- | --- |
| B1 | no binding (tested: 20 µg/mL) |
| B2 | no binding (tested: 20 µg/mL) |
| B3 | no binding (tested: 20 µg/mL) |
| B4 | no binding (tested: 20 µg/mL) |
| B5 | no binding (tested: 20 µg/mL) |
| B6 | no binding (tested: 20 µg/mL) |
| B7 | no binding (tested: 20 µg/mL) |
| B8 | no binding (tested: 20 µg/mL) |
| B9 | no binding (tested: 20 µg/mL) |
| B10 | no binding (tested: 20 µg/mL) |
| B11 | no binding (tested: 20 µg/mL) |
| B12 | no binding (tested: 20 µg/mL) |
| B13 | no binding (tested: 20 µg/mL) |
| B14 | no binding (tested: 20 µg/mL) |
| B15 | no binding (tested: 20 µg/mL) |
| B16 | no binding (tested: 20 µg/mL) |
| B17 | no binding (tested: 20 µg/mL) |
